Assay results: publication PMC4533773 (International Journal of Molecular Medicine, 2015)

Target: T1, AIM (analyte of the BLI experiment) (UniProt Q9QWK4 22-352)
T1 sequence (looked up): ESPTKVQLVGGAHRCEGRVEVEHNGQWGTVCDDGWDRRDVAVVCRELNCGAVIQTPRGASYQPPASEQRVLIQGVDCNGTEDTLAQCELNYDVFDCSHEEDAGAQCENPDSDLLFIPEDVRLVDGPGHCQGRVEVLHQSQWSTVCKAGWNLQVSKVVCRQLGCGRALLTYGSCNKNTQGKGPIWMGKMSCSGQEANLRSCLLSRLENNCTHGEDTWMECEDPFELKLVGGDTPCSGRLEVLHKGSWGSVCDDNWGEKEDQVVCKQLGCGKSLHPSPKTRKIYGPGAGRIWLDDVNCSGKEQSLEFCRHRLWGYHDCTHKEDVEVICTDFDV
Assay: BLI

Kd: 25.3 nM
koff: 0.000999 s⁻¹
kon: 39600 M⁻¹ s⁻¹
B1: Biotinylated IGFBP-4 (natural protein, UniProt P47879 22-254, looked up)
chain: DEAIHCPPCSEEKLARCRPPVGCEELVREPGCGCCATCALGLGMPCGVYTPRCGSGMRCYPPRGVEKPLRTLMHGQGVCTELSEIEAIQESLQTSDKDESEHPNNSFNPCSAHDHRCLQKHMAKIRDRSKMKIVGTPREEPRPVPQGSCQSELHRALERLAASQSRTHEDLFIIPIPNCDRNGNFHPKQCHPALDGQRGKCWCVDRKTGVKLPGGLEPKGELDCHQLADSFQE
modifications: biotin (labelled after purification; sites not stated)
